Measurements reported in PMC3266958 (Oncogene, 2011).

Target: purified bovine calmodulin (bovine, UniProt P62157 1-149)
Experiment: ITC

B1: FBXL2 (ITC with CaM, data not shown) (natural protein)
chain: MVFSNNDEGLINKKLPKELLLRIFSFLDIVTLCRCAQISKAWNILALDGSNWQRIDLFNFQTDVEGRVVENISKRCGGFLRKLSLRGCIGVGDSSLKTFAQNCRNIEHLNLNGCTKITDSTCYSLSRFCSKLKHLDLTSCVSITNSSLKGISEGCRNLEYLNLSWCDQITKDGIEALVRGCRGLKALLLRGCTQLEDEALKHIQNYCHELVSLNLQSCSRITDEGVVQICRGCHRLQALCLSGCSNLTDASLTALGLNCPRLQILEAARCSHLTDAGFTLLARNCHELEKMDLEECILITDSTLIQLSIHCPKLQALSLSHCELITDDGILHLSNSTCGHERLRVLELDNCLLITDVALEHLENCRGLERLELYDCQQVTRAGIKRMRAQLPHVKVHAYFAPVTPPTAVAGSGQRLCRCCVIL
A Kd of 810 nM was found for B1 in this work.
